Drawing on US20160289298A1, this text covers Kd for 1 substance.

For one assay, the target named is TGFβ1 (UniProt P01137). Put plainly: SPR (Biacore), receptor-Fc captured by anti-Fc antibody, ligand injected.
The target of a further assay is TGFβ2 (UniProt P61812). Described as above.
TGFβ2, sequence (P61812 303-414 limits assumed): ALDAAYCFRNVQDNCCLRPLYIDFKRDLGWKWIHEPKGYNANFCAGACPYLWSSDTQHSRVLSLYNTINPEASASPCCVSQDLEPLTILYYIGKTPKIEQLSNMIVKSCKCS

TGFβ1, sequence (P01137 279-390 limits assumed): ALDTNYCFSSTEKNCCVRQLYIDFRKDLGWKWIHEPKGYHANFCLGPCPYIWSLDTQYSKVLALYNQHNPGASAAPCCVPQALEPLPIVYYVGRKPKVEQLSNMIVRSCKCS

In the case of “TGFβRII-Fc homodimeric complex (from UniProt P37173 23-159) (Fc fusion)”, the Kd was 0.025 nM with TGFβ1 and above 44 nM in the assay with TGFβ2.

Usually Kd stands for the equilibrium constant for the complex coming apart. Read a low Kd as a tighter complex.
